Source: patent publication EP4684807A1, “LINKER AND USE THEREOF IN LIGAND DRUG CONJUGATE” (priority 2023, dated 2024)

T1: ADAM9 on ADAM9-positive cells (Calu-3, Ls174T) (UniProt Q13443 29-819, limits assumed)
T1 sequence (looked up): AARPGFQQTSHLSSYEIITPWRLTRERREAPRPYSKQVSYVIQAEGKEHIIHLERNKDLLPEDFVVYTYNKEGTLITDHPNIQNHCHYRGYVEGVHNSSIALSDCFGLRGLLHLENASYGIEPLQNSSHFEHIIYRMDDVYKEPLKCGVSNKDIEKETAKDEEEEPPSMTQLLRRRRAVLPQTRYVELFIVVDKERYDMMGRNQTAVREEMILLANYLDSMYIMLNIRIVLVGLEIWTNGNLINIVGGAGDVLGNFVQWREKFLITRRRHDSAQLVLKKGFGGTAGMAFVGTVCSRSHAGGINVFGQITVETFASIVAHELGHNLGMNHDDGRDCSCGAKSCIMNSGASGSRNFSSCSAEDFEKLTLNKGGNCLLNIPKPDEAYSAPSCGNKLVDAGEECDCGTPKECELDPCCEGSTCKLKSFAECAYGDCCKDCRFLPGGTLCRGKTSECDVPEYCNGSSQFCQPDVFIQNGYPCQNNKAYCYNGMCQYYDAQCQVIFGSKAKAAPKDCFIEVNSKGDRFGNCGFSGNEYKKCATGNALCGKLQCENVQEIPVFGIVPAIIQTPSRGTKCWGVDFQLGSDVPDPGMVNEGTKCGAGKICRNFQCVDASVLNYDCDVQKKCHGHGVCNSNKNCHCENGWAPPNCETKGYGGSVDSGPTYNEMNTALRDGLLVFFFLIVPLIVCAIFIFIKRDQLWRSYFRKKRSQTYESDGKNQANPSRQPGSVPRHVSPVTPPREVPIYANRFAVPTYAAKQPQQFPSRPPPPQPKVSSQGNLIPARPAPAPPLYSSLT


Target: T1, ADAM9 on ADAM9-positive cells (Calu-3, …)
Test: cell-based or functional assay

| Binder | IC50 (nM), inhibition of cell proliferation, Calu-3 cells, CellTiter-Glo, 6 days | IC50 (nM), inhibition of cell proliferation, Ls174T cells, CellTiter-Glo, 6 days |
| --- | --- | --- |
| ADC-3D-1 (Reference ADC-22C) (antibody, human IgG1, kappa, V domains shown, control linker-payload conjugated to antibody thiols after TCEP reduction; DAR (k) 7.5 for the whole antibody) VH: QVQLQQPGTEVVKPGASVKLSCKASGFTFPLYWMHWVRQRPGRGLEWIGRIIPIFGHTKYNEKFKNKATLTADESSSTAYMELRSLTSDDSAVYYCARGGYYYYPREGFLDYWGQGTSVTVSS VL: DIVMTQSPASLSVSPGERASISCRSSQSVDYSGDSYMNWYQQKPGQSPRLLIYAASDRESGVPDRFSGSGSGTDFTLKISRVEEEDAGTYYCQQSREDPFTFGQGTKVDIKR | 0.34 nM | – |
| ADC-2D-1 (Reference ADC-20C) (antibody, human IgG1, kappa, V domains shown, control linker-payload conjugated to antibody thiols after TCEP reduction; DAR (k) 4.3 for the whole antibody) VH: QVQLQQPGTEVVKPGASVKLSCKASGFTFPLYWMHWVRQRPGRGLEWIGRIIPIFGHTKYNEKFKNKATLTADESSSTAYMELRSLTSDDSAVYYCARGGYYYYPREGFLDYWGQGTSVTVSS VL: DIVMTQSPASLSVSPGERASISCRSSQSVDYSGDSYMNWYQQKPGQSPRLLIYAASDRESGVPDRFSGSGSGTDFTLKISRVEEEDAGTYYCQQSREDPFTFGQGTKVDIKR | – | 27.1 nM |
| ADC-1D-1 (Reference ADC-20C) (antibody, human IgG1, kappa, V domains shown, control linker-payload conjugated to antibody thiols after TCEP reduction; DAR (k) 4.4 for the whole antibody) VH: QVQLQQPGTEVVKPGASVKLSCKASGFTFPLYWMHWVRQRPGRGLEWIGRIIPIFGHTKYNEKFKNKATLTADESSSTAYMELRSLTSDDSAVYYCARGGYYYYPREGFLDYWGQGTSVTVSS VL: DIVMTQSPASLSVSPGERASISCRSSQSVDYSGDSYMNWYQQKPGQSPRLLIYAASDRESGVPDRFSGSGSGTDFTLKISRVEEEDAGTYYCQQSREDPFTFGQGTKVDIKR | – | 15.3 nM |
| ADC-4D-1 (Reference ADC-22C) (antibody, human IgG1, kappa, V domains shown, control linker-payload conjugated to antibody thiols after TCEP reduction; DAR (k) 7.6 for the whole antibody) VH: QVQLQQPGTEVVKPGASVKLSCKASGFTFPLYWMHWVRQRPGRGLEWIGRIIPIFGHTKYNEKFKNKATLTADESSSTAYMELRSLTSDDSAVYYCARGGYYYYPREGFLDYWGQGTSVTVSS VL: DIVMTQSPASLSVSPGERASISCRSSQSVDYSGDSYMNWYQQKPGQSPRLLIYAASDRESGVPDRFSGSGSGTDFTLKISRVEEEDAGTYYCQQSREDPFTFGQGTKVDIKR | 0.78 nM | – |
